In assay [1] the target is T1, human DR4 (Death Receptor 4), cell surface expressed on human tumor cell lines (human, UniProt O00220 24-468).
T1 construct: also called TNFRSF10A; TRAIL-R1
T1 sequence: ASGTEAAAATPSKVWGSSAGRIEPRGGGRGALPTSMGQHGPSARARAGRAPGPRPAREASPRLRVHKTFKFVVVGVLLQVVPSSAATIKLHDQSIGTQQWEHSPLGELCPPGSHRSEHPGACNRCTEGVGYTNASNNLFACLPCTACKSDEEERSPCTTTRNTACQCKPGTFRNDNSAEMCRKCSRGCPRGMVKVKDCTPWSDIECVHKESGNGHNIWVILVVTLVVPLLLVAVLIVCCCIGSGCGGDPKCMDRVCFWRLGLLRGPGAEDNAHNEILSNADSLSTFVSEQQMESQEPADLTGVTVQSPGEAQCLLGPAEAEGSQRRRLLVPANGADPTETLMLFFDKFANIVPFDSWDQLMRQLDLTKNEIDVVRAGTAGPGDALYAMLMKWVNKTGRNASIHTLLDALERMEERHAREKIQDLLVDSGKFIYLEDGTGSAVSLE
Nature of the assay: flow cytometry, A549 cells, average ± SEM. In general terms: A flow cytometer gives signals particle by particle.

Assay [2] has as its target T1, human DR4 (Death Receptor 4), cell …. Put plainly: flow cytometry, HCT-116 cells, average ± SEM.
The target in assay [3] is T2, human FAPα (Fibroblast activation protein alpha), cell surface expressed (human, UniProt Q12884 1-760).
T2 construct: Endogenous on human lung fibroblasts and CAFs
T2 sequence: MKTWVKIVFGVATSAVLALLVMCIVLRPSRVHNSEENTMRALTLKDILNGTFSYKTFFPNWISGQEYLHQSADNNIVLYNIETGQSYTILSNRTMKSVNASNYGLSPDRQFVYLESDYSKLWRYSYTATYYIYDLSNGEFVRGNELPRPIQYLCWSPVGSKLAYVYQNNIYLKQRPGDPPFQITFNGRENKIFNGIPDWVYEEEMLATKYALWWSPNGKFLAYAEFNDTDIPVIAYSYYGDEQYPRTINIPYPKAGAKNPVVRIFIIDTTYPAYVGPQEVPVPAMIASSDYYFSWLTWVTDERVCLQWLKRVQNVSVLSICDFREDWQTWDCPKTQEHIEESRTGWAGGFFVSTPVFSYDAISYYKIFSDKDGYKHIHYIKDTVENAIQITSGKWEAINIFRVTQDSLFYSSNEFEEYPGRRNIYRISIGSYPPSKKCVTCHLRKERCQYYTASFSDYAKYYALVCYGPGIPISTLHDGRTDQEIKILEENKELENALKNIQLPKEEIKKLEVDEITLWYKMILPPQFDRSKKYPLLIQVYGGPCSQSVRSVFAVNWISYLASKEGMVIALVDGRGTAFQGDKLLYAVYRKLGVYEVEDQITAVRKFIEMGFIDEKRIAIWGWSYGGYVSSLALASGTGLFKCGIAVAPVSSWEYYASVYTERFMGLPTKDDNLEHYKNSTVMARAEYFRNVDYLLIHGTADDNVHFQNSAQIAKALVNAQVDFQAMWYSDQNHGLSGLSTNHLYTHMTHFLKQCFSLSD
Put plainly: flow cytometry, Expi293F cells expressing human FAPα, n = 1. As to the method:
(§1) Binding of BisG1-FAPα-FERL/DR4-FERR, BisG1-FAPα-FEAL/b12-FEAR and IgG1-FAPα-FERL to FAPα of species commonly used for nonclinical toxicology studies was assessed by flow cytometry using Expi293F cells transiently expressing FAPα from different animal species. IgG1-b12 was included as negative control.
(§2) Expi293F cells expressing recombinant FAPα from various species (human, cynomolgus monkey, dog, pig, rat or mouse) were seeded (20,000 cells/well) in 96-Well round bottom plates (Greiner Bio-one, Cat #650101). Antibody dilutions were prepared using FACS buffer, consisting of PBS (Capricorn Scientific, Cat #PBS-10XA, diluted to 1×PBS in distilled water)+1% BSA (Roche, Cat #10735086001)+0.02% Sodium Azide (Bio-World, Cat #41920044-3). Plates were centrifuged, supernatant was removed, and cells were resuspended in 100 μL of antibody dilutions (concentration range 30-0.00017 μg/mL with three-fold serial dilutions using FACS buffer) of BisG1-FAPα-FERL/DR4-FERR, BisG1-FAPα-FEAL/b12-FEAR, IgG1-FAPα-FERL and IgG1-b12 and incubated for 30 min at 4° C. […] After 30 min incubation at 4° C., cells were washed with FACS buffer and resuspended in FACS buffer supplemented with TO-PRO-3 Iodide viability marker (Invitrogen, Cat #T3605, diluted 1:4,000). Antibody binding to viable cells (gMFI of PE on TO-PRO-3 negative cells) was analyzed by flow cytometry on a FACS Celesta and FACS_Diva software (first two experiments) or iQue® 3 and FlowJo software (last experiment). gMFI was determined and visualized using GraphPad Prism. Binding curves were analyzed using nonlinear regression analysis. The concentration (pg/mL) at which 50% of the maximal effect was observed (EC₅₀) was derived from the fitted curves.

The target in assay [4] is T3, cynomolgus monkey FAPα on Expi293F cells (cynomolgus monkey (Macaca fascicularis), UniProt Q12884 1-760 (human entry)).
T3 sequence: T2 sequence with S29P, V261F, E417D
Nature of the assay: flow cytometry, Expi293F cells expressing cynomolgus monkey FAPα, n = 1. As to the method:
as §1, §2

Numbering of substitutions follows the chain as printed.

This is an account of results in US20250002610A1 (Genmab, published 2025).

B1: BisG1-FAPα-FERL/DR4-FERR (bispecific antibody, human IgG1, kappa, lambda)
heavy 1: EVQLLESGGGLVQPGGSPRLSCEASGFTFSSYALSWVRQAPGKGLEWVSAISGSGGGRYYADSVKGRFTISRDNSKNTLFLQMNSLRAEDTAVYYCAKEGYSSSGTYWDHWGQGTLVTVSSASTKGPSVFPLAPSSKSTSGGTAALGCLVKDYFPEPVTVSWNSGALTSGVHTFPAVLQSSGLYSLSSVVTVPSSSLGTQTYICNVNHKPSNTKVDKRVEPKSCDKTHTCPPCPAPEFERGPSVFLFPPKPKDTLMISRTPEVTCVVVDVSHEDPEVKFNWYVDGVEVHNAKTKPREEQYNSTYRVVSVLTVLHQDWLNGKEYKCKVSNKALPAPIEKTISKAKGQPREPQVYTLPPSREEMTKNQVSLTCLVKGFYPSDIAVEWESNGQPENNYKTTPPVLDSDGSFLLYSKLTVDKSRWQQGNVFSCSVMHEALHNHYTQKSLSLSPG
light 1: AIQMTQSPSSVSASVGDRVTITCRASQGVSSWLAWYQQKPGRAPKLLIYVASTLQSGVPSRFSGSGSGTDFTLTINSLQPEDFATYYCQQANSFPPTFGQGTRLEMKRTVAAPSVFIFPPSDEQLKSGTASVVCLLNNFYPREAKVQWKVDNALQSGNSQESVTEQDSKDSTYSLSSTLTLSKADYEKHKVYACEVTHQGLSSPVTKSFNRGEC
heavy 2: QVQLQESGPGLVKPSGTLSLTCAVSGGSISSYSWWSWIRQPPGKGLEWIGELYHSGSTNYNPSLKSRVTISVDKSKNQFSLKLRSVTAADTAVYYCVRGVATIDYWGQGTLVTVSSASTKGPSVFPLAPSSKSTSGGTAALGCLVKDYFPEPVTVSWNSGALTSGVHTFPAVLQSSGLYSLSSVVTVPSSSLGTQTYICNVNHKPSNTKVDKRVEPKSCDKTHTCPPCPAPEFERGPSVFLFPPKPKDTLMISRTPEVTCVVVDVSHEDPEVKFNWYVDGVEVHNAKTKPREEQYNSTYRVVSVLTVLHQDWLNGKEYKCKVSNKALPAPIEKTISKAKGQPREPQVYTLPPSREEMTKNQVSLTCLVKGFYPSDIAVEWESNGQPENNYKTTPPVLDSDGSFFLYSRLTVDKSRWQQGNVFSCSVMHEALHNHYTQKSLSLSPG
light 2: QSALTQPPSASGSPGQSVTISCTGTSSDVGGYNFVSWYQQDPGKAPKLLIYEVTKRPSGVPDRFSGSKSGNTASLTVSGLQAEDEADYYCSSYAGSNNVMFGGGTKLTVLGQPKAAPSVTLFPPSSEELQANKATLVCLISDFYPGAVTVAWKADSSPVKAGVETTTPSKQSNNKYAASSYLSLTPEQWKSHRSYSCQVTHEGSTVEKTVAPTECS
notes: Human IgG1 bispecific made by controlled Fab-arm exchange of IgG1-FAPα-FERL and IgG1-DR4-FERR; monovalent for FAPα and for DR4; also called GEN1057
In the case of B1, the EC50 – broadly, the concentration giving half of the maximal effect – turned out to be 0.89 mg/L in assay [1], 0.52 mg/L in assay [2], 0.18 mg/L in assay [3] and 0.24 mg/L in assay [4].

B2: BisG1-b12-FERL/DR4-FERR (bispecific antibody, human IgG1, kappa, lambda)
heavy 1: QVQLVQSGAEVKKPGASVKVSCQASGYRFSNFVIHWVRQAPGQRFEWMGWINPYNGNKEFSAKFQDRVTFTADTSANTAYMELRSLRSADTAVYYCARVGPYSWDDSPQDNYYMDVWGKGTTVIVSSASTKGPSVFPLAPSSKSTSGGTAALGCLVKDYFPEPVTVSWNSGALTSGVHTFPAVLQSSGLYSLSSVVTVPSSSLGTQTYICNVNHKPSNTKVDKRVEPKSCDKTHTCPPCPAPEFERGPSVFLFPPKPKDTLMISRTPEVTCVVVDVSHEDPEVKFNWYVDGVEVHNAKTKPREEQYNSTYRVVSVLTVLHQDWLNGKEYKCKVSNKALPAPIEKTISKAKGQPREPQVYTLPPSREEMTKNQVSLTCLVKGFYPSDIAVEWESNGQPENNYKTTPPVLDSDGSFLLYSKLTVDKSRWQQGNVFSCSVMHEALHNHYTQKSLSLSPG
light 1: EIVLTQSPGTLSLSPGERATFSCRSSHSIRSRRVAWYQHKPGQAPRLVIHGVSNRASGISDRFSGSGSGTDFTLTITRVEPEDFALYYCQVYGASSYTFGQGTKLERKRTVAAPSVFIFPPSDEQLKSGTASVVCLLNNFYPREAKVQWKVDNALQSGNSQESVTEQDSKDSTYSLSSTLTLSKADYEKHKVYACEVTHQGLSSPVTKSFNRGEC
heavy 2: B1 heavy 2
light 2: B1 light 2
notes: Fab-arm exchange of IgG1-b12-FERL and IgG1-DR4-FERR; also called bsIgG1-ctrl-FERLxDR4-FERR
With B2, the EC50 in assay [1] stood at 0.78 mg/L; in assay [2], 0.57 mg/L.
